Measured values published in the RNAGym collection of RNA variant scans (doi:10.7554/elife.80360).

B1: HDV Ribozyme (parent)
chain: GGCCGGCAUGGUCCCAGCCUCCUCGCUGGCGCCGGCUGGGCAACAUUCCGAGGGGACCGUCCCCUCGGUAAUGGCGAAUGGGACCCA

Variants of: B1
Test: self-cleavage, relative activity (ratio to wild type); higher = more cleavage; co-transcriptional

Going from C3G U37C to C4A C33U, the self-cleavage falls from 1.08 to 0.104.

Compared with C3U A83U, C3G G35A is higher in self-cleavage: 0.17 for the first, 1.08 for the second.

First: C3U C48U
Second: C3G U9C
The self-cleavage of the first is higher: 0.804 for the first, 0.554 for the second.

First: C3U A42C
Second: C3G G29A
The self-cleavage of the first is higher: 0.181 for the first, 0.106 for the second.

Going from C4A C14A to C4A C14U, the self-cleavage rises from 0.119 to 0.554.

First: C4A C15A
Second: C3G U20C
The self-cleavage of the first is higher: 0.198 for the first, 0.0489 for the second.

First: C3U A45U
Second: C3G C61U
The self-cleavage of the first is lower: 0.432 for the first, 0.729 for the second.

First: C3G C61A
Second: C3G G73C
The self-cleavage of the first is higher: 0.87 for the first, 0.272 for the second.

Compared with C4A C19G, C4A C13G is higher in self-cleavage: 0.0339 for the first, 0.0692 for the second.

Going from C3U U65G to C3U C75U, the self-cleavage falls from 0.682 to 0.197.

First: C3U C75G
Second: C3U C75A
The self-cleavage of the first is higher: 0.104 for the first, 0.101 for the second.

Going from C3U G67A to C3U G67U, the self-cleavage falls from 0.822 to 0.752.

Going from C3G G54U to C3U G11A, the self-cleavage falls from 0.702 to 0.262.

Compared with C3U G11C, C4A A16C is lower in self-cleavage: 0.191 for the first, 0.0339 for the second.

First: C4A A16G
Second: C3U U12C
The self-cleavage of the first is higher: 0.344 for the first, 0.107 for the second.

First: C3G G38C
Second: C3G G38A
The self-cleavage of the first is higher: 0.192 for the first, 0.0386 for the second.

Going from C3U C33G to C3U C33A, the self-cleavage rises from 0.0282 to 0.123.

Compared with C3G C19A, C3G G74A is higher in self-cleavage: 0.0594 for the first, 0.114 for the second.

First: C3U G31C
Second: C3G G39U
The self-cleavage of the first is higher: 0.168 for the first, 0.0989 for the second.

Compared with C4A C66U, C3U C49U is higher in self-cleavage: 0.361 for the first, 0.762 for the second.

First: C3G G40U
Second: C4A C7A
The self-cleavage of the first is higher: 0.442 for the first, 0.0449 for the second.

First: C4A C63U
Second: C3U U60G
The self-cleavage of the first is lower: 0.344 for the first, 0.591 for the second.

First: C3U U60A
Second: C3U G35A
The self-cleavage of the first is higher: 0.769 for the first, 0.694 for the second.

First: C3U G35U
Second: C3U U23C
The self-cleavage of the first is lower: 0.649 for the first, 0.776 for the second.

Going from C3U U23A to C3U U23G, the self-cleavage falls from 0.9 to 0.743.

Going from C3G G80A to C3G G80C, the self-cleavage falls from 0.0911 to 0.0665.

Going from C3U C15A to C3U G76A, the self-cleavage rises from 0.481 to 0.908.

First: C3U G29A
Second: C3G G50U
The self-cleavage of the first is lower: 0.0154 for the first, 0.665 for the second.

Going from C3U U27A to C3U C85U, the self-cleavage falls from 0.701 to 0.626.

First: C3U C85A
Second: C3G G11U
The self-cleavage of the first is higher: 0.646 for the first, 0.0683 for the second.

Going from C3U C32U to C3U U47G, the self-cleavage rises from 0.338 to 0.594.

Going from C4A C61U to C4A C61A, the self-cleavage falls from 0.267 to 0.219.

Going from C4A C61G to C4A A42G, the self-cleavage falls from 0.193 to 0.0875.

Compared with C4A C44G, C4A C44U is higher in self-cleavage: 0.0665 for the first, 0.0739 for the second.

Going from C4A A8U to C4A A8C, the self-cleavage falls from 0.0723 to 0.

Compared with C3U C66U, C3U G81A is lower in self-cleavage: 0.753 for the first, 0.17 for the second.

Going from C4A C30U to C4A C30G, the self-cleavage falls from 0.116 to 0.

Compared with C3U G25U, C3U G25A is higher in self-cleavage: 0.0175 for the first, 0.138 for the second.

First: C3G G68C
Second: C3G G68U
The self-cleavage of the first is higher: 0.531 for the first, 0.383 for the second.

Compared with C3U G82U, C3G C75A is lower in self-cleavage: 0.332 for the first, 0.119 for the second.

First: C3U C36A
Second: C3U C84U
The self-cleavage of the first is lower: 0.132 for the first, 0.808 for the second.

First: C3G C85G
Second: C3U C44G
The self-cleavage of the first is higher: 0.774 for the first, 0.354 for the second.

Going from C3U C44U to C3U C19A, the self-cleavage falls from 0.378 to 0.0573.

Compared with C3U C24G, C3U C24U is higher in self-cleavage: 0.0782 for the first, 0.679 for the second.

First: C4A C64A
Second: C4A C64G
The self-cleavage of the first is lower: 0.157 for the first, 0.386 for the second.

First: C3U C41U
Second: C3U A77G
The self-cleavage of the first is lower: 0.726 for the first, 0.739 for the second.

First: C3U A77U
Second: C3U U72G
The self-cleavage of the first is lower: 0.354 for the first, 0.453 for the second.

Going from C3U U72C to C3U C61A, the self-cleavage rises from 0.471 to 0.801.

Going from C3G G82A to C3G G82U, the self-cleavage falls from 0.19 to 0.166.

Going from C4A C26U to C4A C26A, the self-cleavage falls from 0.415 to 0.332.

First: C3G C21U
Second: C3U C57U
The self-cleavage of the first is lower: 0.0326 for the first, 0.794 for the second.

First: C3U C57A
Second: C3U C63A
The self-cleavage of the first is lower: 0.9 for the first, 0.909 for the second.

Going from C4A A70U to C4A A70G, the self-cleavage falls from 0.252 to 0.189.

First: C3U G34A
Second: C3U G34C
The self-cleavage of the first is lower: 0.106 for the first, 0.182 for the second.

Going from C4A C62A to C4A C62G, the self-cleavage falls from 0.177 to 0.

Going from C4A C62U to C4A C24U, the self-cleavage falls from 0.248 to 0.

First: C3G C84A
Second: C3G U69C
The self-cleavage of the first is lower: 0.564 for the first, 0.653 for the second.

Going from C3G G53C to C3U U69G, the self-cleavage rises from 0.609 to 0.649.

First: C3G U72G
Second: C4A
The self-cleavage of the first is higher: 0.345 for the first, 0.315 for the second.

First: C3U G50U
Second: C3U G39A
The self-cleavage of the first is higher: 0.728 for the first, 0.21 for the second.

Going from C3U G39C to C3G C57A, the self-cleavage rises from 0.0804 to 0.802.

Going from C3U A16G to C3U G28C, the self-cleavage falls from 0.675 to 0.0449.

First: C3G C36G
Second: C4A C85U
The self-cleavage of the first is lower: 0.0343 for the first, 0.381 for the second.

Compared with C4A C85A, C3U A87G is higher in self-cleavage: 0.346 for the first, 0.752 for the second.

Compared with C3G C30A, C3G C30G is lower in self-cleavage: 0.0639 for the first, 0.0594 for the second.

First: C3U G53C
Second: C3U G53U
The self-cleavage of the first is lower: 0.688 for the first, 0.779 for the second.

Going from C3G U27A to C3G G25U, the self-cleavage falls from 0.308 to 0.0277.

Going from C3G G55A to C3G G55U, the self-cleavage rises from 0.76 to 0.821.

Going from C3G C66U to C3G C66G, the self-cleavage rises from 0.715 to 0.761.

Going from C3U C64G to C3G G6C, the self-cleavage falls from 0.915 to 0.0475.

Compared with C3U U37A, C3U C26U is higher in self-cleavage: 0.128 for the first, 0.65 for the second.

First: C3G U23C
Second: C3G G31U
The self-cleavage of the first is higher: 0.48 for the first, 0.0739 for the second.

Going from C4A C22A to C3U U20G, the self-cleavage rises from 0.0332 to 0.125.

First: C3G U60A
Second: C3G U60C
The self-cleavage of the first is higher: 0.772 for the first, 0.748 for the second.

Compared with C3G U60G, C3U A56C is lower in self-cleavage: 0.773 for the first, 0.675 for the second.

Compared with C3U G52C, C3G G5U is lower in self-cleavage: 0.546 for the first, 0.119 for the second.

Compared with C3G U46G, C3U U9A is higher in self-cleavage: 0.248 for the first, 0.904 for the second.

Going from C3G G34A to C3G G34C, the self-cleavage falls from 0.229 to 0.192.

Going from C3U G10A to C3U C21G, the self-cleavage falls from 0.513 to 0.0723.

Compared with C4A A78U, C3G C44A is higher in self-cleavage: 0.0437 for the first, 0.312 for the second.

First: C3U G74U
Second: C3U G74C
The self-cleavage of the first is higher: 0.241 for the first, 0.0712 for the second.

Going from C4A C84U to C3G G10C, the self-cleavage falls from 0.172 to 0.151.

Going from C3U G6C to C3G C58U, the self-cleavage rises from 0 to 0.709.

Variant C3G C58A has a self-cleavage of 0.842.
